The values that follow come from PMC7016142, “Tripartite phase separation of two signal effectors with vesicles priming B cell responsiveness” (Nature Communications, 2020).

Holding throughout (conditions): both partners purified
For one test, the target named is T1, CIN85Δ57 (human, UniProt Q96B97 1-665, deletion of residues 369-425).
T1 construct: CIN85 (SH3KBP1), human, amplified with primers from the start ATG to the stop codon, residues 369-425 deleted; The tag and its cleavage follow only from 'Protein expression and purification was performed as described above'; also called trimeric CIN85Δ57; source: E. coli, modified pET28a vector, purified as the other constructs; not shown: His7, N-terminal, cleaved
Briefly: NMR titration; 15N-HSQC of 15 µM 15N-labeled SLP65_(1-330) with CIN85Δ57 added, without or with SUVs (phase-separated samples); peak intensity ratio over SLP65 only; 293 K; 20 mM HEPES pH 7.2, 100 mM NaCl, 1 mM TCEP.

Test [1] addresses T2, CIN85_(1-333) (human, UniProt Q96B97 1-333, 15N-labeled in the PRE experiment; unlabeled in the HSQC titration).
T2 construct: CIN85 (SH3KBP1), human, residues 1-333 with the three N-terminal SH3 domains, lacking the C-terminal coiled coil; also called monomeric CIN85; source: E. coli BL21(DE3), purified (Ni-NTA, TEV cleavage, size exclusion); not shown: His7, N-terminal, cleaved
T2 sequence (looked up): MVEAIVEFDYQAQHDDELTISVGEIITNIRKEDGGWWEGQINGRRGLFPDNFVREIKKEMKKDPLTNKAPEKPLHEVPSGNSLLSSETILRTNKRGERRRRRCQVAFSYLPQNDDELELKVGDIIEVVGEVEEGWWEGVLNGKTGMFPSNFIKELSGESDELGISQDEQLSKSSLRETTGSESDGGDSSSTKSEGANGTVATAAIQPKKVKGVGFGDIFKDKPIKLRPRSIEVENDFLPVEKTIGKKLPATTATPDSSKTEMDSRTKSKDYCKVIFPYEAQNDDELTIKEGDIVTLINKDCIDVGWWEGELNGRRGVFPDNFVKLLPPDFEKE
Briefly: NMR titration; 15N-HSQC of 60 µM 15N-labeled SLP65_(1-330) titrated with increasing amounts of unlabeled CIN85_(1-333); 293 K; 20 mM HEPES pH 7.2, 100 mM NaCl, 1 mM TCEP, 0.5 mM Pefabloc.

For test [2], the target named is T2, CIN85_(1-333). Briefly: NMR paramagnetic relaxation enhancement (1H R2-PRE); 15N-labeled CIN85_(1-333) mixed with MTSL-tagged SLP65 constructs at 10:1 molar ratio; TROSY with two-point delay; constructs without MTSL with 1 mM TCEP as diamagnetic reference; 293 K.

B1: SLP65_(1-330) (domain or fragment, human, UniProt Q8WV28 1-330, looked up)
chain: MDKLNKITVPASQKLRQLQKMVHDIKNNEGGIMNKIKKLKVKAPPSVPRRDYASESPADEEEQWSDDFDSDYENPDEHSDSEMYVMPAEENADDSYEPPPVEQETRPVHPALPFARGEYIDNRSSQRHSPPFSKTLPSKPSWPSEKARLTSTLPALTALQKPQVPPKPKGLLEDEADYVVPVEDNDENYIHPTESSSPPPEKAPMVNRSTKPNSSTPASPPGTASGRNSGAWETKSPPPAAPSPLPRAGKKPTTPLKTTPVASQQNASSVCEEKPIPAERHRGSSHRQEAVQSPVFPPAQKQIHQKPIPLPRFTEGGNPTVDGPLPSFSS
modifications: 15N-labeled
notes: SLP65 (BLNK), human, residues 1-330 (without the C-terminal SH2 domain); also called BLNK; Src homology (SH) 2 domain-containing leukocyte protein of 65 kDa; source: E. coli BL21(DE3), purified (Ni-NTA, TEV cleavage, size exclusion); not shown: His7, N-terminal, cleaved
Take B1: the binding result in the test with CIN85Δ57 and in the test with CIN85_(1-333) [1] was “binds” in each case.

B2: SLP65_(40-330), MTSL-tagged at C271 (domain or fragment, human, UniProt Q8WV28 40-330, looked up)
chain: KVKAPPSVPRRDYASESPADEEEQWSDDFDSDYENPDEHSDSEMYVMPAEENADDSYEPPPVEQETRPVHPALPFARGEYIDNRSSQRHSPPFSKTLPSKPSWPSEKARLTSTLPALTALQKPQVPPKPKGLLEDEADYVVPVEDNDENYIHPTESSSPPPEKAPMVNRSTKPNSSTPASPPGTASGRNSGAWETKSPPPAAPSPLPRAGKKPTTPLKTTPVASQQNASSVCEEKPIPAERHRGSSHRQEAVQSPVFPPAQKQIHQKPIPLPRFTEGGNPTVDGPLPSFSS
modifications: nitroxide spin label MTSL on C271
notes: SLP65 (BLNK), human, residues 40-330, naturally contains a single cysteine (C271); also called MTSL-tagged SLP65 constructs; source: E. coli BL21(DE3), purified (Ni-NTA, TEV cleavage, size exclusion); not shown: His7, N-terminal, cleaved
For the molecule B2, the binding result with CIN85_(1-333) [2] is reported as “binds”.

B3: SLP65_(40-330) (C271A, S141C), MTSL-tagged (domain or fragment, human, UniProt Q8WV28 40-330, looked up)
chain: KVKAPPSVPRRDYASESPADEEEQWSDDFDSDYENPDEHSDSEMYVMPAEENADDSYEPPPVEQETRPVHPALPFARGEYIDNRSSQRHSPPFSKTLPSKPCWPSEKARLTSTLPALTALQKPQVPPKPKGLLEDEADYVVPVEDNDENYIHPTESSSPPPEKAPMVNRSTKPNSSTPASPPGTASGRNSGAWETKSPPPAAPSPLPRAGKKPTTPLKTTPVASQQNASSVAEEKPIPAERHRGSSHRQEAVQSPVFPPAQKQIHQKPIPLPRFTEGGNPTVDGPLPSFSS
modifications: nitroxide spin label MTSL on the single cysteine (S141C)
notes: SLP65 (BLNK), human, residues 40-330; also called MTSL-tagged SLP65 constructs; source: E. coli BL21(DE3), purified (Ni-NTA, TEV cleavage, size exclusion); not shown: His7, N-terminal, cleaved
Consider B3, for which, in the test with CIN85_(1-333) [2], the binding result is “binds”.

B4: SLP65_(40-330) (C271A, S236C), MTSL-tagged (domain or fragment, human, UniProt Q8WV28 40-330, looked up)
chain: KVKAPPSVPRRDYASESPADEEEQWSDDFDSDYENPDEHSDSEMYVMPAEENADDSYEPPPVEQETRPVHPALPFARGEYIDNRSSQRHSPPFSKTLPSKPSWPSEKARLTSTLPALTALQKPQVPPKPKGLLEDEADYVVPVEDNDENYIHPTESSSPPPEKAPMVNRSTKPNSSTPASPPGTASGRNSGAWETKCPPPAAPSPLPRAGKKPTTPLKTTPVASQQNASSVAEEKPIPAERHRGSSHRQEAVQSPVFPPAQKQIHQKPIPLPRFTEGGNPTVDGPLPSFSS
modifications: nitroxide spin label MTSL on the single cysteine (S236C)
notes: as for B3
With B4, the binding result with CIN85_(1-333) [2] is reported as “binds”.

B5: SLP65_(40-330) (C271A, Q302C), MTSL-tagged (domain or fragment, human, UniProt Q8WV28 40-330, looked up)
chain: KVKAPPSVPRRDYASESPADEEEQWSDDFDSDYENPDEHSDSEMYVMPAEENADDSYEPPPVEQETRPVHPALPFARGEYIDNRSSQRHSPPFSKTLPSKPSWPSEKARLTSTLPALTALQKPQVPPKPKGLLEDEADYVVPVEDNDENYIHPTESSSPPPEKAPMVNRSTKPNSSTPASPPGTASGRNSGAWETKSPPPAAPSPLPRAGKKPTTPLKTTPVASQQNASSVAEEKPIPAERHRGSSHRQEAVQSPVFPPAQKCIHQKPIPLPRFTEGGNPTVDGPLPSFSS
modifications: nitroxide spin label MTSL on the single cysteine (Q302C)
notes: as for B3
As to B5, the binding result with CIN85_(1-333) [2] is “binds”.
